Source: patent publication US20210369837A1, “METHODS OF TREATING TIM-3 ELEVATION” (ADVANTAGENE, INC., priority 2016, published 2021)

Test system: PD-L1
Experiment: Flow cytometry of PD-L1 protein expression after interferon treatment
Assay type: cell-based, mouse
Settings: CT2A and GL261 cells, day 4 post-treatment, IFN-β 1000 U/ml (FIGS. 5C-5F)
Procedure: In another experiment, CT2A and GL261 cells were treated with IFN-β (1000 U/ml) (PBL Assay Science, Piscataway N.J.) and/or MAR-1-5A3 monoclonal antibody against IFNAR1 (BioXcel, West Lebanon, N.H.) ([…]). Cells were analyzed by flow cytometry for PD-L1 protein expression at day 4 post-treatment using either in the absence of specific antibody (isotype) or with PD-L1 specific antibody (BD Bioscience, San Jose, Calif.). Cells analyzed were either subjected to no treatment (untreated), or treated with INFα or INFβ.
FIG. 5D and FIG. 5F show quantification of the percent of live cells analyzed by flow cytometry that express surface PD-L1 above baseline.

B1: IFN-β: IFN-β (1000 U/ml) (PBL Assay Science) used to treat CT2A and GL261 cells (protein, UniProt P01575 22-182, looked up)
Interferon beta: INYKQLQLQERTNIRKCQELLEQLNGKINLTYRADFKIPMEMTEKMQKSYTAFAIQEMLQNVFLVFRNNFSSTGWNETIVVRLLDELHQQTVFLKTVLEEKQEERLTWEMSSTALHLKSYYWRVQRYLKLMKYNSYAWMVVRAEIFRNFLIIRRLTRNFQN
Question: B1 was tested. Which “Surface expression of PD-L1 protein” value did it give?
Answer: increased surface expression of PD-L1 protein

Question: And the “Surface expression of PD-L1 protein” value (listed as INFβ)?
Answer: Increases in surface PD-L1 expression
